Results on two molecules are retold here after patent US20190092819A1 (published 2019).

Assay [1] concerns the target Recombinant human DSG2 protein (desmoglein 2), soluble (human) (UniProt Q14126). Description: method not named at this place; presumably the SPR of FIG. 7 (noDD forms).
For assay [2], the target named is T1, Desmoglein 2 (DSG2) on cells (human, UniProt Q14126 50-1118).
T1 sequence (looked up): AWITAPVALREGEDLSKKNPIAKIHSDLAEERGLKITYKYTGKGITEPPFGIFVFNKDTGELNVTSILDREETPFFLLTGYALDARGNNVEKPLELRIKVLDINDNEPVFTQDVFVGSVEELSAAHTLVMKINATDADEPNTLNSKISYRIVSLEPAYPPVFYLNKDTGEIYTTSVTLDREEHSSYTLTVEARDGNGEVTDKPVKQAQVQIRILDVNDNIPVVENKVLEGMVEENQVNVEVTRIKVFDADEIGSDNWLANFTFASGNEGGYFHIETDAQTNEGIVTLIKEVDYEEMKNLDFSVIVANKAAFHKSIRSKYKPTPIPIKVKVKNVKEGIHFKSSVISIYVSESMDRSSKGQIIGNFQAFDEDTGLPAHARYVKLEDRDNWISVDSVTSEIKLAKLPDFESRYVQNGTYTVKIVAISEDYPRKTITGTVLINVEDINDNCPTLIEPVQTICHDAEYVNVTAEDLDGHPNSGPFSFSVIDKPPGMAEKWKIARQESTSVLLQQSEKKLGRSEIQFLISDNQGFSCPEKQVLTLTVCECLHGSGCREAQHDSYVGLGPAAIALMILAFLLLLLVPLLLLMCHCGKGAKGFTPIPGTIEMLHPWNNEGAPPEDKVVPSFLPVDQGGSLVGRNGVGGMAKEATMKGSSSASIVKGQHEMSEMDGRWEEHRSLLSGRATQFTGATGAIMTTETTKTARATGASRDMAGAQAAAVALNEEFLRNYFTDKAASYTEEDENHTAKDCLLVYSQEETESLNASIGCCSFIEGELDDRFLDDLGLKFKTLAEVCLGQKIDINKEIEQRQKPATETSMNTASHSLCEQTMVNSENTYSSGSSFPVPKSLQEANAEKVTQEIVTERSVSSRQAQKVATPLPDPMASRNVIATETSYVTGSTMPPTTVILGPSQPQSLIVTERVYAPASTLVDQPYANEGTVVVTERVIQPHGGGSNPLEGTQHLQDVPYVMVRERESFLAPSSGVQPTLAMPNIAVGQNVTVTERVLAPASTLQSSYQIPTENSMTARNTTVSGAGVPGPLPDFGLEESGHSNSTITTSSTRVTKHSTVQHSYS
Description: cell-based or functional assay.

The target in assay [3] is T1, Desmoglein 2 (DSG2) on cells. Description: competition: attachment of 3H-labelled Ad3 virus (competitor) to HeLa cells after pre-incubation with dimeric knob; scintillation counting.
Assay [4] deals with Recombinant human DSG2 protein (desmoglein 2), soluble (human) (UniProt Q14126). Description: Western blot of purified dimeric knob (trimer band) probed with soluble recombinant DSG2, anti-DSG2 mAb and anti-mouse IgG-HRP; bands quantified. Background: In western blotting, separated proteins are transferred to a membrane and probed.

Usually Kd stands for the concentration at which binding is half-saturated.

On to “JO-4 (dimeric affinity-enhanced Ad3 fiber knob mutant Y250F) (ligand)”, for which the dissociation constant (Kd) in assay [1] is 11.4 nM.

B1: dimeric Ad3 fiber knob mutant N186D, D261N (ligand)
chain: MKVSALKEKVSALKEKVSALKEKVSALKEKVSALKEGSGGGSGGGSGGGSNSIALKNNTLWTGPKPEANCIIEYGKQNPDSKLTLILVKNGGIVNGYVTLMGASDYVNTLFKDKNVSINVELYFDATGHILPDSSSLKTDLELKYKQTADFSARGFMPSTTAYPFVLPNAGTHNENYIFGQCYYKASNGALFPLEVTVMLNKRLPDSRTSYVMTFLWSLNAGLAPETTQATLITSPFTFSYIREDD
notes: JO-1 format; Positions count on the full Ad3 fiber; also called combination of N186D and D261N
In the case of B1, in assay [2], the “Inhibition of infection in the presence of dimeric knob (JO-1 = 100%)” value was 5.2 % (JO-1 = 100%). Moreover, the “Inhibition of attachment in the presence of dimeric knob (JO-1 = 100%)” value in assay [3] was 23.5 % (JO-1 = 100%). Moreover, in assay [4], the Western blot Residual DSG2 binding (wtAd3 knob = 100%) was 7%.
